# Test results taken from patent US20250361305A1 (ORIONIS BIOSCIENCES, published 2025).
# Residue numbers refer to the chain shown, from its start.
# B1: 2PD-152 (VHH)
# VHH: QVQLQESGGGLVQTGESLRLSCAASGIIKSINFMGWYRQPPGTKRELVASTTSDGRTTVADSVKGRFTISRDNAKNTIYLEMSSLKPEDTATYWCNADIWLPSDRMYNYWGQGTQVTVSS
# notes: PD-1 VHH
# B2: 2PD-16 (VHH)
# VHH: QVQLQESGGGLVQAGGSLRLSCAASGGFNRVSYMGWYRQAPGTKRELVASVTSGGEITIADSVKGRFTVSRDNSKNTLYLQMNGLKPEDGATYWCNADIWVSDARMYNYWGQGTQVTVSS
# notes: PD-1 VHH
# B3: 2PD71 (VHH)
# VHH: B2 VHH with A14T, G16E, T43S, I59V, S74N
# notes: PD-1 VHH
# B4: 2PD23 (VHH)
# VHH: QVQLQESGGGLVQPGGSLRLSCAASGFSMDYYAIAWFRQAPGKEREEISCITGSDFMVDTYYVASVKGRFTISRDNAENTAYLQMNNLKPEDTGVYFCAVRSTANTLCPSHYSVMDYWGKGTQVTVSS
# notes: PD-1 VHH
# B5: 2PD90 (VHH)
# VHH: B4 VHH with A23S, M29V, E78K, N87S, V114I
# notes: PD-1 VHH
# B6: 2PD-106 (VHH)
# VHH: B4 VHH with A23S, E78K, Y82H, N87S
# notes: PD-1 VHH
# B7: 2PD26 (VHH)
# VHH: B4 VHH with P14A
# notes: PD-1 VHH
# B8: 2PD-12 (VHH)
# VHH: QVQLQESGGGLVQAGGSLRLSCAVSGFILDYYGIGWFRQAPGKEREAVSCISSSDGSTYYADSVKGRFTISRDNALNTLYLQMNSLKPEDTAVYHCATATLCDGGIWGYWGQGTQVTVSS
# notes: PD-1 VHH
# B9: 3PD82 (VHH)
# VHH: B8 VHH with L11S, A14P, H95Y
# notes: PD-1 VHH
# B10: 3PD55 (VHH)
# VHH: B8 VHH with V12A, A23E, V24G, F27L, I28S, Y32D, I34V, D73G, H95Y
# notes: PD-1 VHH
# B11: 3LIG18 (VHH)
# VHH: QVQLQESGGGLVQPGGSLRLSCAASGFNLDPYAIAWFRQAPGKEREEVSCISSSDVGTYYADSVKGRFTISRDNAKKTVYLQMNSLKPEDTAVYYCATDGYYYCSDYPHPLYWGQGTQVTVSS
# notes: PD-L1 VHH
# B12: 2LIG139 (VHH)
# VHH: B11 VHH with A24V
# notes: PD-L1 VHH
# B13: 2LIG65 (VHH)
# VHH: B11 VHH with P14A
# notes: PD-L1 VHH
# B14: 2LIG89 (VHH)
# VHH: B11 VHH with A75T
# notes: PD-L1 VHH
# B15: 2LIG127 (VHH)
# VHH: B11 VHH with A35G, S54G, V56G, G57S, T58K, I70M
# notes: PD-L1 VHH
# B16: 2LIG86 (VHH)
# VHH: QVQLQESGGGLVQPGGSLRLSCAASGFTFDYYAIGWFRQAPGKEREEVSCISGSDSSTYYADSVKGRFTIVRDNAQNTVYLQMNSLKPEDTAIYYCAVTGWRTCRGLNEYDYWGQGTQVTVSS
# notes: PD-L1 VHH
# B17: 2LIG27 (VHH)
# VHH: QVQLQESGGGVVQAGGSLRLSCTASGTIFSINRMDWFRQAPGKQRELVALITSDGTPTYADSAKGRFTISRDNTKKTVSLQMNSLKPEDTAVYYCHVSSGVYNYWGQGTQVTVSS
# notes: PD-L1 VHH
# B18: 2LIG3 (VHH)
# VHH: B17 VHH with V11L, R33H, T56F
# notes: PD-L1 VHH
# B19: 2LIG99 (VHH)
# VHH: B17 VHH with V11L, T58A
# notes: PD-L1 VHH
# B20: 3LIG8 (VHH)
# VHH: B17 VHH with V11L, A14P
# notes: PD-L1 VHH
# B21: 2LIG34 (VHH)
# VHH: B17 VHH with V11S
# notes: PD-L1 VHH
# B22: 2LIG97 (VHH)
# VHH: B17 VHH with V11L, G16E
# notes: PD-L1 VHH
# B23: 3LIG7 (VHH)
# VHH: QVQLQESGGGLVQAGGSLRLSCAASGFTFSSYGMSWVRQTPGKGPEWVSAIDSGGGSTSYADSVKGRFTISRDNAKNTLYLQMNSLKPEDTAVYYCAQGYYCSGYGCSDYWGQGTQVTVSS
# notes: PD-L1 VHH
# B24: 3LIG9 (VHH)
# VHH: B23 VHH with A14P
# notes: PD-L1 VHH
# B25: 3LIG29 (VHH)
# VHH: B23 VHH with L18M
# notes: PD-L1 VHH
# B26: 2LIG29 (VHH)
# VHH: B23 VHH with A14T
# notes: PD-L1 VHH
# B27: 2LIG35 (VHH)
# VHH: B23 VHH with A14P, I70T
# notes: PD-L1 VHH
# B28: 2LIG109 (VHH)
# VHH: B23 VHH with A14S, A23K, A24T
# notes: PD-L1 VHH
# B29: 2LIG176 (VHH)
# VHH: QVQLQESGGGLVQAGGSLRLSCAASESIFSIEAMGWYRQAPGKQRELVAAIFGGGFTNYADSVKGRFTISRDNANRTVYLQMNSLKPEDTAVYYCNADLVSGSSRLYDYWGQGTQVTVSS
# notes: PD-L1 VHH
# B30: 2LIG30 (VHH)
# VHH: QVQLQESGGGLVQPGGSLRLSCAASGKIFSGNDMGWYRQAPGKQRELVGIITSGGITDYADAVKGRFTISRDNAKNMMYLQMNSLKPEDTAVYYCNMRDRTIWWGQGTQVTVSS
# notes: PD-L1 VHH
# B31: 2LIG189 (VHH)
# VHH: B30 VHH with P14A
# notes: PD-L1 VHH
# B32: 2LIG22 (VHH)
# VHH: QVQLQESGGGLVQPGGSLRLSCAASGFTLDYYAINWFRQAPGKEREEVSCISSSDGSTYYADSVKGRFTISRDNAKNTVYLQMNSLKPEDTAVYYCATSGWRLCRPTDEYDYSYWGQGTQVTVSS
# notes: PD-L1 VHH
# B33: 3LIG28 (VHH)
# VHH: B32 VHH with S113L
# notes: PD-L1 VHH
# B34: 2LIG48 (VHH)
# VHH: QVQLQESGGGLVQPGGSLRLSCAASGFTFNDYAMSWVRQAPGKGLEWVSGIRSNGGYTNYADSVKGRFTISRDNAKNTLYLQMNSLKSEDTAVYYCAQGYYCSGYGCYPGQGTQVTVSS
# notes: PD-L1 VHH
# B35: 3LIG30 (VHH)
# VHH: B34 VHH with L11T, P14A
# notes: PD-L1 VHH
# B36: 2LIG16 (VHH)
# VHH: B34 VHH with N30D, A33G, G50A, S53W, Y57S, Y108P, P109R
# notes: PD-L1 VHH
# B37: 2LIG85 (VHH)
# VHH: QVQLQESGGGLVQPGGSLRLSCAASGFTFTAYAMSWFRQAPGKEREEVSCINSSDGSTYYADSVKGRFTISRDNAKNTVYLQMNSLKPEDTAVYHCATDGWRDCTWSNEYAYWGQGTQVTVSS
# notes: PD-L1 VHH
# B38: 2LIG2 (VHH)
# VHH: QVQLQESGGGLVQAGGSLRLSCAASGFTLDYYAIGWFRQAPGKEREEVSCISSSDGSTYYADSVKGRFTISRDNAKNTVNLQMNSLKPEDTAVYYCATDGWSSCRHGINEYLYWGQGTQVTVSS
# notes: PD-L1 VHH
# B39: 3LIG3 (VHH)
# VHH: B38 VHH with A14P
# notes: PD-L1 VHH
# B40: 3LIG33 (VHH)
# VHH: B38 VHH with A14P, G16T
# notes: PD-L1 VHH
# Target: T1, PD-1 antigen (ELISA of Example 2) (human, UniProt Q15116 25-167, limits assumed)
# T1 sequence (Q15116 25-167 limits assumed): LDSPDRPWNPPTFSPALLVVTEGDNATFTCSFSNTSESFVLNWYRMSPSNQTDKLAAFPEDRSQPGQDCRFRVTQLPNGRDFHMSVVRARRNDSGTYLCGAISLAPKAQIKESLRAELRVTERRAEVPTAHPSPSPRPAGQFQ
# Test: ELISA, signal on PD-1 antigen over control
row,Binder,A/control
1,B1,6.38
2,B2,3.84
3,B3,3.59
4,B4,4.56
5,B5,5.23
6,B6,6.9
7,B7,4.2
8,B8,21.5
9,B9,45.1
10,B10,40.4

# Target: T1, PD-1 antigen (ELISA of Example 2)
# Test: ELISA, signal on PD-1 antigen; further: test concentration or dose not given here
row,Binder,ELISA A
1,B1,2.31
2,B2,1.83
3,B3,2.51
4,B4,0.94
5,B5,1.34
6,B6,1.46
7,B7,0.718
8,B8,3.81
9,B9,4
10,B10,3.58

# Target: T2, PD-L1 antigen (ELISA of Example 2) (human, UniProt Q9NZQ7 19-239, limits assumed)
# T2 sequence (Q9NZQ7 19-239 limits assumed): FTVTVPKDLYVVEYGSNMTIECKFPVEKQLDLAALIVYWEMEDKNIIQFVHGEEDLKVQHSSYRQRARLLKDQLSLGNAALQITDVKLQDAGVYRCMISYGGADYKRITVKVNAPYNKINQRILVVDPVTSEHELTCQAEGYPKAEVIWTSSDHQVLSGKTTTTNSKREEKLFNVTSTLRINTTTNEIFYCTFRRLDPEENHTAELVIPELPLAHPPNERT
# Test: ELISA, signal on PD-L1 antigen
row,Binder,ELISA
1,B11,3.5
2,B12,4
3,B13,2.11
4,B14,2.88
5,B15,3.73
6,B16,3.8
7,B17,0.429
8,B18,1.46
9,B19,2.11
10,B20,0.429
11,B21,0.568
12,B22,1.03
13,B23,3.64
14,B24,3.66
15,B25,3.96
16,B26,3.77
17,B27,0.844
18,B28,3.55
19,B29,0.415
20,B30,1.11
21,B31,2.23
22,B32,0.469
23,B33,3.03
24,B34,4
25,B35,4
26,B36,3.02
27,B37,2.67
28,B38,0.51
29,B39,0.58
30,B40,1.76

# Target: T2, PD-L1 antigen (ELISA of Example 2)
# Test: ELISA, signal on PD-L1 antigen over control
row,Binder,A/control
1,B11,40
2,B12,33.3
3,B13,23.6
4,B14,27.2
5,B15,34.6
6,B16,33.6
7,B17,3.78
8,B18,9.75
9,B19,9.16
10,B20,4.39
11,B21,3.59
12,B22,5.13
13,B23,37.6
14,B24,37.7
15,B25,40.9
16,B26,34.6
17,B27,8.18
18,B28,32.6
19,B29,4.22
20,B30,9.59
21,B31,12.9
22,B32,4.55
23,B33,33.2
24,B34,33.2
25,B35,47.3
26,B36,26.4
27,B37,22.6
28,B38,3.86
29,B39,7.16
30,B40,19.1
